From PMC6698960, “Isolation and Characterization of Nanobodies against a Zinc-Transporting P-Type ATPase” (Antibodies, 2018) come the findings set out here.

Changes are numbered by the printed parent chain. Read-outs that look alike come from different tables or passages of the source.

The target in test [1] is T1, zinc-transporting PIB-ATPase ZntA from Shigella sonnei (Shigella sonnei (UniProt Q3YW59, strain …, UniProt Q3YW59)).
In test [2] the target is T1, zinc-transporting PIB-ATPase ZntA from …. In words: SEC. The settings on record: both partners purified.

T1 sequence (Q3YW59 whole entry, one chain of several): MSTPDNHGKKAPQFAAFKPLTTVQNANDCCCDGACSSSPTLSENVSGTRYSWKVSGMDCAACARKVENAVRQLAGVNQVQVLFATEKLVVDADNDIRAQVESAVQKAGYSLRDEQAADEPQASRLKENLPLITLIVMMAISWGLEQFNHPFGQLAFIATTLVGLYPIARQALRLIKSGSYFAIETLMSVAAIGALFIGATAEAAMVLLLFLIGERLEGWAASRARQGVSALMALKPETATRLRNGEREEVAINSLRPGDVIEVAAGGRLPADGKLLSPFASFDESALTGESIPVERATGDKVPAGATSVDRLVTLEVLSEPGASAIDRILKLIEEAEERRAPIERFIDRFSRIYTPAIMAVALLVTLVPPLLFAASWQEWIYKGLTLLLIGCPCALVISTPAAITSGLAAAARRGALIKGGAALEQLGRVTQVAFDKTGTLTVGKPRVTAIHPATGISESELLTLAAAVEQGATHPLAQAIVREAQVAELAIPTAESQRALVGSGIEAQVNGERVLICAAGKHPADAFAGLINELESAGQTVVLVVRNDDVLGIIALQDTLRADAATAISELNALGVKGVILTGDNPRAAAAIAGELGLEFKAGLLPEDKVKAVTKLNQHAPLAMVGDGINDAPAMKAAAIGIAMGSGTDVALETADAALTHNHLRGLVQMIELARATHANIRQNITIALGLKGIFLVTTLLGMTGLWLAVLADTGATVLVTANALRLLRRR

B1: Nb11 (VHH)
VHH: QVQLVETGGGLVQAGDSLRLACAHSGRTFSTYAMGWFRQAPGKEREFVAAISGSGGTTIYADSVTGRFTISRDNTKNTVYLQMNSLKPEDTAVYSCAASQYYMGSRSTENYNVWGQGTQVTVSS
On to B1, for which, in test [1], the binding result is reported as “binds”.

B2: Nb10 (VHH)
VHH: QVQLVESGGGLVQTGGSLRLSCAASGLTFSSYNMGWFRQAPGKEREFLGAIWSSGFTYYLDSVKGRFTISRDNAKNTVYLQMDSLKPEDTAVYYCAAARRLLTQAAAVMFNSYDYWGQGTRVTVSS
In the case of B2, the binding result in test [1] is reported as “binds”.

B3: Nb9 (VHH)
VHH: QLQLVESGGGVVQAGGSLRLSCAASGRTFSSYGMGWFRQAPGKEREFASAISGSGGSTYYADSVKGRFTISRDNAKNTVYLQMNSLKPEDTAVYYCARSRYYSGGRSLLEYDYWGQGTQVTVSS
notes: also called nanobody 9; source: E. coli BL21, purified (Ni2+ beads, SEC); not shown: His6, C-terminal, kept
Take B3: the binding result in test [2] is “binds”.

B4: Nb7 (VHH)
VHH: QVQLVESGGGLVQAGGSLRLSCAASGLTFSAYNMGWFRQAPGKEREFVGAIWSSSFTYYLDSLKGRFTISRDNTKNTVYLQMNSLKPEDTAVYYCAAARRLLTQAGAVLTTSYEYWGQGTQVTVSS
Consider B4, for which the binding result in test [1] is reported as “binds”.

B5: Nb4 (VHH)
VHH: QVQLVESGGGVVQTGGSLRLSCAASGRTFSTYGMGWFRQAPGKEREFVAAISGSGGMTYYGDPVKGRFTISRDNAVNTVYLQMNNLKPEDTAVYICAVGAYYSGGSRAQNYEYWGQGTQVTVSS
notes: also called nanobody 4; source: E. coli BL21, purified (Ni2+ beads, SEC); not shown: His6, C-terminal, kept
With B5, the binding result in test [2] was “binds”.

B6: Nb5 (VHH)
VHH: B5 VHH with P88A, I95V
notes: also called nanobody 5; source: E. coli BL21, purified (Ni2+ beads, SEC); not shown: His6, C-terminal, kept
Regarding B6, in test [2], the binding result is reported as “binds”.

B7: Nb8 (VHH)
VHH: QVQLVETGGGLVQAGGSLRLSCAASGRAFSSYGMGWFRQAPGKEREFVAAVSGSGATTIYADSVKGRFTISRDNAVNTVYLHMNDLKPDDTAVYYCAVGKYYSGSRQSHNYDYWGQGTQVTVSS
notes: also called nanobody 8; source: E. coli BL21, purified (Ni2+ beads, SEC); not shown: His6, C-terminal, kept
Turning to B7, the binding result in test [2] is “binds”.

B8: Nb1 (VHH)
VHH: QVQLVESGGGLVQAGDSLRLSCAASGRTFSNYAMGWFRQAPGKEREFVAAISGGGGTTYYSDSVKGRFTISRDNAKSTVYLQMNSLKPEDTAVYFCASSTYYMPSRAADTYTYWGQGTQVTVSS
notes: also called nanobody 1; source: E. coli BL21, purified (Ni2+ beads, SEC); not shown: His6, C-terminal, kept
For B8, the binding result in test [2] is “binds”.

B9: Nb2 (VHH)
VHH: B8 VHH with V2L, S7T
notes: also called nanobody 2; source: E. coli BL21, purified (Ni2+ beads, SEC); not shown: His6, C-terminal, kept
In the case of B9, the binding result in test [2] is listed as “binds”.

B10: Nb6 (VHH)
VHH: QLQLVETGGGLVQAGGSLRLSCAASGLIFSSYNMGWFRQAPGKEREFVGAIWSSSFTYLLDSVKGRFTISRDNAKNTVYLQMNSLKPEDTAVYYCAASRRLLTQGSAVSTTSYEYWGQGTQVTVSS
B10: in test [1], the binding result is “binds”.
